Data reported in PMC6591243, “Characterization of metal binding of bifunctional kinase/phosphatase AceK and implication in activity modulation” (Scientific Reports, 2019).
Numbering of substitutions follows the chain as printed. Numbers in names are those of the source.

T1: phospho-IDH (isocitrate dehydrogenase phosphorylated by AceK) (E. coli) (UniProt P08200)
T1 sequence (chain, phosphorylated by AceK (residue not printed)): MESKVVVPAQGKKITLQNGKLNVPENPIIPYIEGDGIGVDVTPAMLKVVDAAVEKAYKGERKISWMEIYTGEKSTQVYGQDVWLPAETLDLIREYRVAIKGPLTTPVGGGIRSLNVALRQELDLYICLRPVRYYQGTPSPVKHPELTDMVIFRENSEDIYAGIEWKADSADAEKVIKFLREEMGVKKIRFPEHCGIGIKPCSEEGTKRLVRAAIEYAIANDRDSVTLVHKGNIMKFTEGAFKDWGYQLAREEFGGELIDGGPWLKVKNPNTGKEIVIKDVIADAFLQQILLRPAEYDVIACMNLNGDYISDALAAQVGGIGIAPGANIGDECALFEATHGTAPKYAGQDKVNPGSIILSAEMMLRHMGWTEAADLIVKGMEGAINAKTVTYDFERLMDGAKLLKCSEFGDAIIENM

B1: isocitrate dehydrogenase kinase/phosphatase (AceK) wild-type (enzyme)
chain: MPRGLELLIAQTILQGFDAQYGRFLEVTSGAQQRFEQADWHAVQQAMKNRIHLYDHHVGLVVEQLRCITNGQSTDAAFLLRVKEHYTRLLPDYPRFEIAESFFNSVYCRLFDHRSLTPERLFIFSSQPERRFRTIPRPLAKDFHPDHGWESLLMRVISDLPLRLRWQNKSRDIHYIIRHLTETLGTDNLAESHLQVANELFYRNKAAWLVGKLITPSGTLPFLLPIHQTDDGELFIDTCLTTTAEASIVFGFARSYFMVYAPLPAALVEWLREILPGKTTAELYMAIGCQKHAKTESYREYLVYLQGCNEQFIEAPGIRGMVMLVFTLPGFDRVFKVIKDRFAPQKEMSAAHVRACYQLVKEHDRVGRMADTQEFENFVLEKRHISPALMELLLQEAAEKITDLGEQIVIRHLYIERRMVPLNIWLEQVEGQQLRDAIEEYGNAIRQLAAANIFPGDMLFKNFGVTRHGRVVFYDYDEICYMTEVNFRDIPPPRYPEDELASEPWYSVSPGDVFPEEFRHWLCADPRIGPLFEEMHADLFRADYWRALQNRIREGHVEDVYAYRRRQRFSVRYGEMLF
B2: AceK D475A (enzyme)
chain: B1 chain with D475A
B3: AceK D477A (enzyme)
chain: B1 chain with D477A
B4: AceK D477K (enzyme)
chain: B1 chain with D477K

What was measured:
[1] = biological target: T2, AceK (isocitrate dehydrogenase kinase/phosphatase) (Escherichia coli, UniProt P11071); assay: X-ray crystallography; format: binding; settings: allosteric site at interface of kinase and regulatory domains; complex with ADP and Mn2+; AMP not listed among crystallisation additions
T2 construct: hexahistidine-tagged, expressed in E. coli BL21 (DE3), Ni-NTA and Superdex200; 66 kDa

[2] = biological target: T1, phospho-IDH (isocitrate dehydrogenase phosphorylated by AceK) (E. coli)

Molecule | X-ray crystallography [1] | Km for phospho-IDH, phosphatase kinetics (20 mM Hepes pH 7.0, 2.0 mM Mn2+, 2.0 mM ADP, 37 °C) [2]
Nc1ncnc2c1ncn2[C@@H]1O[C@H](COP(=O)(O)O)[C@@H](O)[C@H]1O [AMP] | a buried ADP molecule and a bound AMP at the interface of the two domains | 
B1 |  | 0.376 μM
B2 |  | 1.95 μM
B3 |  | 16.1 μM
B4 |  | 12.2 μM
